Experiment [1] addresses CA125抗原 (Cancer Antigen 125) (human) (UniProt Q8WXI7). Kind of experiment: SPR, Biacore, comparator nanobody listed in Table 1. In general terms: In SPR one partner is held on a chip, and binding of the other changes the refractive index at the surface.
Experiment [2] shares this target. Kind of experiment: SPR, Biacore T100, antigen coupled to chip, bispecific as analyte, 1:1 fit.
Experiment [3] has the same target. In words: SPR, Biacore T100, antigen on chip, 1:1 fit (repeats Table 1).
The target is the same in experiment [4]. In words: SPR, Biacore T100, antigen coupled to chip, nanobody as analyte, 1:1 fit.

B1: VHH-CA125-4C1 (VHH, from another filing)
VHH: ESGGGLVQAGGSLRLSCAASGNTFNINAMGWYRQAPGKQRELVATITSGGSTNYADSVKGRFTISRDNAKNTVFLQMNSLKPEDTAVYYCNAVQTRLPNSPDRYEYDYWGQGT
In turn, B1 showed a Kd in experiment [1] of 0.635 nM. In other words, the sub-nanomolar range.

B2: VHH-CA125-4H10 (VHH, from another filing)
VHH: ESGGGLVQPGGSLRLSCAASEFTLEHYAIGWFRQAPGKEREGVGCISSSQENTYVEDSAKGRFTISRDNVKNTVYLQMNSLKPEDTAVYYCAARRFGLCVISPGYFEVWGQGT
For B2, the equilibrium dissociation constant (Kd) in experiment [1] turned out to be 0.285 nM.

B3: 抗CA125双特异性纳米抗体 4A4-(G4S)4-6C1 (bispecific antibody)
chain: QVQLQESGGGLVQAGTSLTLSCAASERTFSAYDMNWYRQAPGKERELVAAISWRGPITYVADSVKGRFTISRDNAKNTVYLQMNSLKPEDTAIYYCNAEPGPGYVGSYALSYWGQGTQVTVSSGGGGSGGGGSGGGGSGGGGSQVQLQESGGGLVQAGGSLRLSCAASGSMFSINAMRWYRQAPGKQRELVAAITSGGSTNYADSVKGRFTISRDNAKNTMYLQMNSLKPEDTAVYYCNAAQTRLPNSADRYEYDYWGQGTQVTVSS
Regarding B3, in experiment [2], the Kd was 0.0768 nM.

B4: VHH-CA125-2H7 (VHH, from another filing)
VHH: ESGGGLVQAGGSLRLSCERSDAPHSPYTMGWFRQAPGKDREFVATITWSGGTTLYADSVKGRFTISRGIAKNTAYLQMNTLKPEDTAVYYCAVGLGGGAYREDHQYDYWGQGT
In the case of B4, the Kd in experiment [1] is 0.718 nM.

B5: 抗CA125纳米抗体6C1 (VHH)
VHH: QVQLQESGGGLVQAGGSLRLSCAASGSMFSINAMRWYRQAPGKQRELVAAITSGGSTNYADSVKGRFTISRDNAKNTMYLQMNSLKPEDTAVYYCNAAQTRLPNSADRYEYDYWGQGTQVTVSS
B5: the Kd in experiment [3] and in experiment [4] was 0.198 nM each time.

B6: 抗CA125纳米抗体4A4 (VHH)
VHH: QVQLQESGGGLVQAGTSLTLSCAASERTFSAYDMNWYRQAPGKERELVAAISWRGPITYVADSVKGRFTISRDNAKNTVYLQMNSLKPEDTAIYYCNAEPGPGYVGSYALSYWGQGTQVTVSS
In the case of B6, the Kd in experiment [3] and in experiment [4] was 3.59 nM each time.

Usually Kd stands for the constant that tells how readily two partners part at equilibrium.

The record behind these values is patent publication CN114106184A.
